23 sequences from a protein production outcome set (Wang et al. 2014) can be followed below.

The data set is described as follows: label from the status in PepcDB records.
Take “MGKVQPVYWRQLRDIEMENNFLLDVRTPDEFSLNTLPGAVNIPLDELRDRLDELPKDKMIYTFCAVGLRGYLAYRILVQHGFEKVRNLSGGLKTYHAAAAPIILREESENEVPLEHHHHHH”: the protein production entry is “not failed”.

“MSAFQAFVVNKTETEFTAGVQTISMDDLPEGDVLVRVHYSSVNYKDGLASIPDGKIVKTYPFVPGIDLAGVVVSSQHPRFREGDEVIATGYEIGVTHFGGYSEYARLHGEWLVPLPKGLTLKEAMAIGTAGFTAALSIHRLEEHGLTPERGPVLVTGATGGVGSLAVSMLAKRGYTVEASTGKAAEHDYLRVLGAKEVLAREDVMAERIRPLDKQRWAAAVDPVGGRTLATVLSRMRYGGAVAVSGLTGGAEVPTTVHPFILRGVSLLGIDSVYCPMDLRLRIWERLAGDLKPDLERIAQEISLAELPQALKRILRGELRGRTVVRLA”: the protein production entry is “not failed”.

As for “MKIVAITSCPNGIAHTYMAQEKLEQVAKEMGVDIKVETQGGVGAENVLTTQDIEEADGVIIAADKQVDLSRFVGKRLINENVREGIHNPRGLIQRIINQDAPIY”, the protein production entry is “not failed”.

Turning to “MALILTFLGKSGVARTKIAIAAAKLLASQGKRVLLAGLAEPVLPLLLEQTLTPDPQQIAPNLEVVQFQSSVLLERNWEEVKKLEAQYLRTPIIKEVYGQELVVLPGMDSALALNAIREYDASGKYDAIVYDGTGDAFTLRMLGLPESLSWYVRRFRQLFVNSDLGKTIAESPLIQPLISSFFNVNWTADNFAQPTNQVNNFLDKGKEALADPKRVAAFLVTTADPLEVVSVRYLWGSAQQIGLTIGGVIQVSSQTEGDLSAEFTPLSVTVVPDVTKGDWQPLIDALPNFVEQAEQAPKPITIDTHNRQVRLFLPGFDKKQVKLTQYGPEVTVEAGDQRRNIFLPPALSGRPITGAKFQNNYLIISFLEHHHHHH”, the protein production entry is on record as “not failed”.

On to “MKLVTISGPPSSGKTAVLAGVIRAMMASGLKVGALKYDCLATNDDDVFRAIGVPVQTGLSGNLCPDHYFVSNIEECLDWGIREGFDFLLSESAGLCNRCAPHIKGVLAVCVIDNLMGATTPKKIGPMLKYADIVVITKGDIVSQAEREVFAFQVRRANPRAKIMHVNGITGQGAGELASQFLLAPETTCLDGSRLRFSMPAALCSYCLGETRIGMEFQLGNVKKIKMSEEPARLEHHHHHH”, for which the protein production entry was “not failed”.

For “MNVWQVVGYKHSGKTTLMEKWVAAAVREGWRVGTVKHHGHGGEPARPEGVDSVRHERAGAVATAVEGDGLLQLHLRRPLWRLDDVLALYAPLRLDLVLVEGYKQERHPKVVLVRSEEDWASLQHLANIRAVIAWEPLEGPLAHPVFSLADDDEYIPWLMNEVRTRT”, the protein production entry was “not failed”.

In the case of “MEKLVLGIIGIFFVISGFDYINNNKLGLGDKFKEGMISMGSIAISMVGIYSLSPLIGEGIGFLLTPISNFLGIDSSIFPSMFLAVDMGALGIAESLSSNIHMYWISGVIIASTLGATISFSIPLALGIIEEKYLEDLTTGLLYGIMTLPIAPIVAGLFLGVDIKLLLFNILPLIIFAILLAVFMNKFKDTTVKFFIKLGKLIQLVSILGLLVLGFLSIIGIKPIGSILPIDEALSVVGKIAIFLGGAYPLINFITEKFSKVLSKIGEKINIDEFSIAAFLGTLASNIILFQSFNKMSSKGRIALTAFSVSGAFVIGGQLGFVSLKTPEIINIYIASKLIAGITAMVVALIVHRKTEENLNDESQSEENIPVLES”, the protein production result is reported as “failed”.

In the case of “MRKLLSVIVSLMTAMAFAQQPVELPLWPDGAPNSNGLTGGEKEVSPHRLSNVTAPTITVYRAPQPNGMAVIMCPGGGYSRLAMDHEGHDMASWFCGQGITYVVLKYRMPNGHCEVPLSDAERAIRIVREHAGEWNIHPRKIGIMGASAGGHLASTLATHYSAASRPDFQILLYPVVTMTQSTHGGSRKELLGGNPTAEQEVLFSNELQVTSDTPQAFIVLSSDDGAVPPSNGVNYYLALQKNNVPASLHVYPTGGHGWGFRDNFKYKQQWTQELEKWLREGVVFPKETAPMLRIGKTYLGTKYVANTLDQGTEEKLVILPQTVDCLTFVEYTLAQAMGSSFADNLQKIRYRDGVIDGYTSRLHYTSDWIENGVRQGFLEDVTAQNSTQTTKLSLSYMSTHPQKYRQLADSPENVKRMAEHEKALSGKKVHWLPKGKLPDAGLPWIMDGDIIAITTNLPGLDVAHVGMAEYINGKLHLLHASSTLGKVVVSEEPLSQMLRNNKSWSGIRVVRMSHP”, the protein production result was “failed”.

Regarding “MTPFTQSQRIKALFWLSLFHLLVIISSNYLVQLPITIFGFHTTWGAFSFPFIFLATDLTVRIFGAPLARRIIFAVMIPALLVSYVVSSLFYMGAWQGFAALANFNLFVARIAAASFMAYALGQILDVHVFNRLRQNRRWWLAPTASTLFGNISDTLAFFFIAFWRSPDAFMAGHWMEIALVDYCFKVLISIIFFLPMYGVLLNMLLKKLADKSEISPLPAS”, the protein production result is given as “not failed”.

As for “MDFGSFLKAPEIKVKIVTYRDIFQDKAMIENRFGEEYRDRSAVIKMDSADLKQLNVKKGETVILKNSFGTVVVKAEESGYEPSHRGIAYMPKSPWSNMLVSDETGGTGIPKFKDISVTVTSAKGQKLTELGL”, the protein production entry was “not failed”.

In the case of “ELHPRTGRLVSLSACGRTARRQQPGQEFNHGLVLSREPLRDGRVFTVRIDRKVNSWSGSIEIGVTALDPSVLDFPSSATGLKGGSWVVSGCSVLRDGRSVLEEYGQDLDQLGEGDRVGVERTVAGELRLWVNGRDCGVAATGLPPRVWAVVDLYGKCTQITVL”, the protein production entry is listed as “not failed”.

“MKKPVLETWLERGLFASRWLMAPFYVGLVVALAALMVVFFQELFQELPRVPSMTPESAILMALTLIDLSLAANLMVIVILSGYENFVSKIDTASHEDRPEWMGTVDFSGLKMKLIASIVAISAIALLKAFLKLTEPGQTVDQVRLFWLVMVHLSFVVSGVLLAVMDWLNAKVAKS”: the protein production entry was “failed”.

Turning to “MDGLFEFCQLSTGGSVAGAVKLNRQQTDMAVNWAGGLHHAKKYEASGFCYVNDIVLAILELLKYHQRVLYIDIDIHHGDGVEEAFYTTDRVMTVSFHKYGEYFPGTGDLRDIGAGKGKYYAVNFPMCDGIDDESYGQIFKPIISKVMEMYQPSAVVLQCGADSLSGDRLGCFNLTVKGHAKCVEVVKTFNLPLLMLGGGGYTIRNVARCWTYETAVALDCEIPNELPYNDYFEYFGPDFKLHISPSNMTNQNTPEYMEKIKQRLFENLRMLPHAPGVQMQAIPEDAVHEDSGDEDGEDPDKRISIRASDKRIACDLEHHHHHH”, the protein production entry was “not failed”.

Consider “MRIDVESQNINVTSLKEAPIHLSGQIQPHGVLLVLEEPGLKILQVSNNTWGILGINAENILQKKLEDLLDSFQIERIQSGLSSGNLEFINPTKIWIRKKGDDYAVFDAVFHRNTEGFLILELEPAITQENIPFLSFYHLAKASINQLQKTANLRDFCQIIVQEVRKVTDFDRVMLYKFDDDGHGSVIAEEKLDSLEPYLGLHYPESDIPKPARKLFISNSIRVIPNAQAQAIQMIPALNPVSDRPVDLTNSILRSAANCHLEYLHNMGVGASLTISLIKDNKLWGLIACHHLSAKYVSYELRKACEFLGRVIFAEISAREETEDYDYRMNLTHIQSLLVEYMSQEDNFVDGLIKHQPSLLDLTSAQGAAVCFGDHCTLIGETPKAEDLVFLVQWLKNNVEEEVFYTDSLPQVYPDAERYKNVASGLLAIPISQRNYVLWFRPEVIQTVNWGGDPNQPFEVNKLDGNVRLCPRKSFELWKETVRLTSLPWRYVEIRAALELRKAIVNIVLRQADELAQLAHDLERSNAELKKFAYVASHDLQEPLNQVANYVQLLEMRYQDQLDADANEFITFAVEGVSLMQTLIDDVLAYSKVDTQAIAFQLTEVEKALDKALGNLRQRIAETGANITHDPLPTVMAGSTQLMQLFQNLIANAIKFRSEEAPQIHIGAERLEDEWLFSVRDNGIGIDPQFSDRIFVIFQRLHTRDEYHGTGMGLAICKKIIECHRGRIWVESQLGEGATFYFTIPVGGRERERRNGRKTQNNLFS”, for which the protein production entry is on record as “failed”.

In the case of “MKTLGNILWFIFGGFFGGLSWLFAGVIWCITIIGIPIGLQCFKLAGLSFWPFKKRVVYSDSGVSLVVNIIWLIISGLPLAIGHCISGLFLCLTIIGIPFGQQSFKLAKLALMPFGARVVSTNDFYFE”, the protein production result was “failed”.

Consider “MKRLMFIGPSQCGKTSLTQSLRGEALHYKKTQAIEWSPMAIDTPGEYLENRCLYSALLTSACEADVIALVLNADAQWSPFSPGFTVPMNRPTIGLVTKADLADPQRISLVAQWLTQAGARQIFITSALNNSGLDAVLDFLNSKEPLCLTKLEHHHHHH”, for which the protein production entry is given as “failed”.

Turning to “MQSKGATGSKSEQRTGLLNGVAAYGMWGLVPLYWPLLKPAGAVEILAHRMVWSLALVAVALLVMRRWAWAGELLRQPRKLALVTVAAAVITVNWGVYIWAVNAGHVVEASLGYFINPLVTIALGVLILKERMRPWQWAAVGVAFTAVVVLTVGYGQPPWISLCLAFSFGTYGLVKKKVNLGGIESLAAETAIQFLPALAYLLWLTASGGSTFGTQGGAGHAALLASTGVVTAIPLVCFGAAAIRVPLSTLGLLQYLAPVFQFLLGILYFHEAMPPERWAGFALVWLALSLLTWDALRAAHRASRALRTAPSRIVADEQITPVYEHP”, the protein production entry is given as “failed”.

Regarding “MSLQRVTNCIVVDHDQVLLLQKPRRGWWVAPGGKMEAGESILETVKREYWEETGITVKNPELKGIFSMVIFDEGKIVSEWMLFTFKATEHEGEMLKQSPEGKLEWKKKDEVLELPMAAGDKWIFKHVLHSDRLLYGTFHYTPDFELLSYRLDPEPQMKKKGIITITTDPNSSSVDKLAAALEHHHHHH”, the protein production entry is recorded as “not failed”.

As to “MRFKQNADHIVLTHVFNGGSAESAALCPQDKIIALDGYACTDFAAQWARYHVRAKINIHFFRAGILRQTVLTVQATALEHHHHHH”, the protein production entry was “failed”.

“MASHDHHHHHHDHEHDHEKSDGGEGKASWVGKDGKVYHSHDGLAPHSHEPIYSPGYFSRRAPPLHDRNFSERAFTVGIGGPVGTGKTALMLALCRFLRDKYSLAAVTNDIFTKEDGEFLVKNGALPEERIRAVETGGCPHAAIREDISINLGPLEELSNLFKADLLLCESGGDNLAANFSRELADYIIYIIDVSAGDKIPRKGGPGITQADLLVINKTDLAAAVGADLSVMERDSLRMRDGGPFVFAQVKHGLGVEEIVNHVMHSWEHATGKKRQ”: the protein production result is recorded as “not failed”.

With “MMLRFSVITYTFGRLTTKKHNKVMKKLIFLFAFCLTVTNIFAQTDPSQLKKEGSDAFNAKNYPVAYAKFSEYLKQTNNQDSAIAYYCGMAADEVKKYAEAVTFFDIAIQKKFNIGNAYARKALALDAMKKTDEYVATLEEGLKVDPDNKTMIKNYGLHYLKAGIAAQKAGKVEEAEECFKKVIPLDHKTYKTNALYSLGVLCYNDGANILKKAAPLANSDADKYAAEKEKADGRFKEAIGYLEEATKVSPEDTKSKTMLSQVQAAMK”, the protein production result is listed as “failed”.

For the sequence “MSEEIVLKAGGKIYQGWTKIGITRSLEAMSGAFDLEMTYKFLGNDAQYKAFIEPIKQGQACTVDIGGERVITGYVDDWVPSYDESTITISVSGRDKTADLVDCSIDYPSGQFNNQTLTQIADIVCKPFGIKVIVNTDVGEPFQRIQIEQGETPHELLARLAKQRGVLLTSDTFGNLVITRASKTKAGVSLILGDNVKAARGRFSWRQRFSKFTIKAAGAAHGQWDSAGLPTVGGIKADVTDSEIGRYRPLIIVNEEVTTAEGAAKRGQWERQRSIGKSNMAEYTVTGWRIPQTGKLWNINTLVPVIDEIMGLDEEMLIASILFSEDDAGRLAVISVVRPDAMDIPAQIVKDTKLGGSTW”, the protein production entry is on record as “not failed”.

On to “MTQLPPAIFLMGPTAAGKTDLAIELTKVLPCELISVDSALVYRGMDIGTAKPSRELLAQFPHRLIDILDPAESYSAADFRTDALAAMADITARGKIPLLVGGTMLYYKALLEGLADMPAADPQVRAELEEEAARLGWQALHDQLAAVDPESAARIHPNDPQRLTRALEVYRVSGLTMTAHRQRQLAQSTEAGASGRSQLPYTVANLAIAPANRQVLHQRIAQRFTQMLEQGFIDEVVALRSRSDLHAGLPSIRAVGYRQVWDHLDGKLTSAEMQERGIIATRQLAKRQFTWLRSWADLQWLDSLDCDNLPRALKYLGTISILSLEHHHHHH”, for which the protein production result is reported as “failed”.
